This note sets out measurements from PMC7302350.

This data set concerns the target DOT1L (1-416), recombinant (Homo sapiens) (UniProt Q8TEK3). The data set is described as follows: EMSA. Conditions: EMSA: 10 mM HEPES pH 7.3, 20 mM KCl, 1 mM MgCl2, 1 mM DTT, 5% glycerol, 100 ug/mL tRNA, room temperature 30 min; pull-down: Pierce Magnetic RNA-Protein ….
Chain of UniProt Q8TEK3 (Q8TEK3 1-416): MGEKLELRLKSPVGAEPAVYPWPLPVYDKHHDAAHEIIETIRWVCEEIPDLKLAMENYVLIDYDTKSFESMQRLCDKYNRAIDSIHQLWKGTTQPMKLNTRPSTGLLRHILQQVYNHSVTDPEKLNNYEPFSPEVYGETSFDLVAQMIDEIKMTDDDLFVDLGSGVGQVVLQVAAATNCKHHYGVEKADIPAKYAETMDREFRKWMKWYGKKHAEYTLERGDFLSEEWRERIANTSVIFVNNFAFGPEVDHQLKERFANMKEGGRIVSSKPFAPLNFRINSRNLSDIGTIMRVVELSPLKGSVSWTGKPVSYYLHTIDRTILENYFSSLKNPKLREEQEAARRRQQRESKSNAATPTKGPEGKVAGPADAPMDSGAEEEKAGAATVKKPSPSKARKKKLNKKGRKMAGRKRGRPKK

As for “GGGACAUUCGAGCAGCUGCUCUGGAGAAACAGCAGGAUCUACGGAAGUUUGUACCCACCGCCUCGCCUGCAGCCUCGGGAGUCUCAACCCAAGCCGGCCCGGCCUUGUAGCCCAGAGCAGCAAAGCCACAGCAGGCAACGCGAGCUAACGCGGGUCGCGCGGAGGUCGGGAGCCCAGGCGGCGGAGGCGGCGGCGGCGCAGUUAUUCCCGGGUGACUCUGGGGACUCGUGCAGAUGGGGGACGCCUCCGGCCACGCACUUGGAGCCA [LAMP5-AS1 503-764]”, the binding result was “binds”.
